Experimental data taken from publication PMC4269863.

Key:
[1] = biological target: HIV-1 surface envelope glycoprotein gp120 (immobilised for SPR) (HIV-1 (strain not stated)) (UniProt P04578); assay: SPR; gp120 and gp41 covalently immobilised by amine coupling on a CM4 chip (about 115 and 45 RU), HSA as control surface; CBAs injected as two-fold dilutions; Biacore T200, 25°C, HBS-P (10 mM HEPES, 150 mM NaCl, 0.05% surfactant P20, pH 7.4) with 10 mM CaCl2; 1:1 Langmuir model
[2] = biological target: HIV-1 transmembrane envelope glycoprotein gp41 (immobilised for SPR) (HIV-1 (strain not stated)) (UniProt P04578); assay: as above
[3] = biological target: envelope glycoproteins gp120/gp41 of HIV-1 NL4.3 virus with gp41 N625Q/N674Q (HIV-1 NL4.3)
[4] = biological target: envelope glycoproteins gp120/gp41 of HIV-1 NL4.3 virus with gp41 N637Q/N674Q (HIV-1 NL4.3)
[5] = biological target: envelope glycoproteins gp120/gp41 of HIV-1 NL4.3 virus with gp41 N625Q/N637Q (HIV-1 NL4.3)
[6] = biological target: envelope glycoproteins gp120/gp41 of HIV-1 NL4.3 virus with gp41 N611Q/N637Q/N674Q (HIV-1 NL4.3)
[7] = biological target: envelope glycoproteins gp120/gp41 of HIV-1 NL4.3 virus with gp41 N611Q/N637Q (HIV-1 NL4.3)
[8] = biological target: envelope glycoproteins gp120/gp41 of HIV-1 NL4.3 virus with gp41 N625Q/N637Q/N674Q (HIV-1 NL4.3)
[9] = biological target: envelope glycoproteins gp120/gp41 of HIV-1 NL4.3 virus with gp41 N674D (HIV-1 NL4.3)
[10] = biological target: envelope glycoproteins gp120/gp41 of HIV-1 NL4.3 virus with gp41 N611Q (HIV-1 NL4.3)
[11] = biological target: envelope glycoproteins gp120/gp41 of wild-type HIV-1 NL4.3 virus (HIV-1 NL4.3)
[12] = biological target: envelope glycoproteins gp120/gp41 of HIV-1 NL4.3 virus with gp41 N674Q (HIV-1 NL4.3)
[13] = biological target: envelope glycoproteins gp120/gp41 of HIV-1 NL4.3 virus with gp41 N625Q (HIV-1 NL4.3)
[14] = biological target: envelope glycoproteins gp120/gp41 of HIV-1 NL4.3 virus with gp41 N637Q (HIV-1 NL4.3)
soluble CD4 = soluble CD4 (UniProt P01730); assay: ELISA; 0.5 μg soluble CD4 coated on maxisorp strips; about 48 ng p24 of virus lysed with Triton-X100 added 1 h at 37°C; bound gp120 detected with sheep antibody D7324; normalised to WT∆Env virus, relative to WT (100%)

Sequence of actinohivin (Q9KWN0 47-160): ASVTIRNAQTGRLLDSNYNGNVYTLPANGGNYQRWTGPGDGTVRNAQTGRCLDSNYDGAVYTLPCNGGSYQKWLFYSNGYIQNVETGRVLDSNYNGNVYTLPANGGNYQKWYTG

Substance	Kd [1] [nM]	Kd [2] [nM]	EC50 of inhibition of cell-free virus infection of C8166 cells (eGFP, flow cytometry, 72 h) [3] [nM]	EC50 of inhibition of cell-free virus infection of C8166 cells (eGFP, flow cytometry, 72 h) [4] [nM]	EC50 of inhibition of cell-free virus infection of C8166 cells (eGFP, flow cytometry, 72 h) [5] [nM]	EC50 of inhibition of cell-free virus infection of C8166 cells (eGFP, flow cytometry, 72 h) [6] [nM]	EC50 of inhibition of cell-free virus infection of C8166 cells (eGFP, flow cytometry, 72 h) [7] [nM]	EC50 of inhibition of cell-free virus infection of C8166 cells (eGFP, flow cytometry, 72 h) [8] [nM]	EC50 of inhibition of cell-free virus infection of C8166 cells (eGFP, flow cytometry, 72 h) [9] [nM]	EC50 of inhibition of cell-free virus infection of C8166 cells (eGFP, flow cytometry, 72 h) [10] [nM]	EC50 of inhibition of cell-free virus infection of C8166 cells (eGFP, flow cytometry, 72 h) [11] [nM]	EC50 of inhibition of cell-free virus infection of C8166 cells (eGFP, flow cytometry, 72 h) [12] [nM]	EC50 of inhibition of cell-free virus infection of C8166 cells (eGFP, flow cytometry, 72 h) [13] [nM]	EC50 of inhibition of cell-free virus infection of C8166 cells (eGFP, flow cytometry, 72 h) [14] [nM]	binding efficiency, percent of WT (soluble CD4)
Urtica dioica agglutinin (natural protein)	9	3.7	30	28	51	52	63	35	34	32	25	32	27	57	
actinohivin (from UniProt Q9KWN0 47-160) (natural protein)	14	2	3.2	4.3	3.8	3.6	3	3.2	2.1	5.4	5.2	8.3	8.1	15	
envelope glycoproteins gp120/gp41 of HIV-1 NL4.3 virus with gp41 N625Q (complex)															130 % of WT
Hippeastrum hybrid agglutinin (natural protein)	0.5	0.4	1.3	1.6	1.4	2.8	2.7	2.1	1.9	1.6	0.9	1.3	1.4	3.7	
